Experimental data taken from the supplement of paper PMC12764529.
± gives the half width of the 95% confidence interval.

Legend:
[1] = folding stability dG unfold from trypsin proteolysis; higher = more stable
Summary of the method: (§1)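 Mini-proteins designed to be under 80 residues and free of cysteine were carried in a PA-tagged cDNA display construct and digested with trypsin and with chymotrypsin. Each protease was applied at 11 threefold-diluted concentrations, alongside a no-protease condition, before sequencing. K50 came from Bayesian fitting of the sequencing counts, and unfolding free energy was obtained by comparing it with a sequence-predicted unfolded-state K50 and a shared folded-state K50, for each protease separately or for both together. Designs were retained only if their AlphaFold2 dimer inter-PAE exceeded 15.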

[2] = folding stability dG unfold from chymotrypsin proteolysis; higher = more stable
Summary of the method: as §1

[3] = folding stability dG unfold (combined trypsin and chymotrypsin); higher = more stable
Summary of the method: as §1

Sequence | folding stability dG unfold [1] | folding stability dG unfold [2] | folding stability dG unfold [3]
SAGGSEVVLEAEGVDPATGKPYTVRVVYDKETGVPVVEVRDADGTLLAVIPVPPDKALEALKELGVSAGGSA [r2_115_TrMRF] | 2.92 ± 0.08 kcal/mol | 3.046 ± 0.013 kcal/mol | 2.99 ± 0.067 kcal/mol
SAGGSAGGMFIALVTITLPNGEKITDLAFFESPEKIYVLNLKDGKWSEPKVEDIKVVPLEELLFSAGGSAGG [r6_558_TrMRF] | 1.92 ± 0.12 kcal/mol | 2.73 ± 0.069 kcal/mol | 2.41 ± 0.18 kcal/mol
SAGGSAGGKPKIIEEKELEFTRKDGKKVKIKLVKNEDGKVFAFNKDTGKVITLPLDELKALLKSSAGGSAGG [r6_579_TrROS_Hall] | 1.87 ± 0.052 kcal/mol | 2.37 ± 0.024 kcal/mol | 2.27 ± 0.054 kcal/mol
SAGGSAGGSAGMTVPPELSVTITRSPEGSLRVESPVPDRELTIPPDVPLTVSPDNVVTVASAGGSAGGSAGG [r17_49_JUSTAS] | 0.451 ± 0.031 kcal/mol | 0.783 ± 0.017 kcal/mol | 0.655 ± 0.041 kcal/mol
SAGGSAGGEKTTVLVRVELYLEDTEVVELPDFVFTDLTEEQVLEEVRKLGLPDNVKVEIIPLPASAGGSAGG [r6_88_TrMRF] | 2.53 ± 0.073 kcal/mol | 2.46 ± 0.11 kcal/mol | 2.47 ± 0.11 kcal/mol
SAGGSAGGSKTYKIKVEKLEDGTYKLKIIDKKTKKEYEITISKKNLPKIKEIKITKNGKIEIKSAGGSAGGS [r20_11_TrROS_Hall] | 1.73 ± 0.026 kcal/mol | 3.08 ± 0.071 kcal/mol | 2.75 ± 0.12 kcal/mol
SAGKIEIVEVTKNYVKIKIKNKKTNKTIEIKIPVKKKKGKKLSKEELEELAKKLAKELYPDMKIEVEKVSAG [r5_293_TrROS_Hall] | 2.24 ± 0.091 kcal/mol | 3.86 ± 0.086 kcal/mol | 3.31 ± 0.27 kcal/mol
SAGGSAGGSAGGSGMTLSVTVLEEKPERLPNGGTIITRTVRIPETGEVIEEVTYEPGALSAGGSAGGSAGGS [r4_94_JUSTAS] | -0.594 ± 0.17 kcal/mol | 0.0529 ± 0.058 kcal/mol | -0.092 ± 0.085 kcal/mol
PMIAPARLPDGSQTVSIFNANGELLVEAVVENDPELIEEAIEKLFEALPNIKPEELHVSVSDPETGESREIS [r1_55_TrMRF] | 1.05 ± 0.049 kcal/mol | 0.345 ± 0.17 kcal/mol | 0.671 ± 0.19 kcal/mol
SAGGSAGGSATVTVERVGNRLLLSFPDGSYYVAELPGEAEVDLASGKITLPANSRVEPVPLERSAGGSAGGS [r20_158_TrMRF] | 0.0598 ± 0.02 kcal/mol | 1 ± 0.015 kcal/mol | 0.743 ± 0.029 kcal/mol
SAGGKPPGLSEIPLPDNKTEKVPVNSDIVLKRPDGTELKYKLPPEPVTTEKNKYTIKLPNGEITIPINSAGG [r13_643_JUSTAS] | -1.03 ± 0.26 kcal/mol | -0.0683 ± 0.26 kcal/mol | -0.0992 ± 0.32 kcal/mol
SAGGSAGGSAGGNVRNLDISLDPEEGTIKIKATLPENGQTWEITIPVQIPLPPPPPGDNSAGGSAGGSAGGS [r10_331_TrROS] | 0.49 ± 0.1 kcal/mol | 0.502 ± 0.12 kcal/mol | 0.424 ± 0.29 kcal/mol
SAGGSAGGSPLPYLTEDGEVQVVVRIDNSTGTTTVTLTGPDGKLLKTFSVSTDGPAFVVVRAGSAGGSAGGS [r12_960_TrMRF] | 1.34 ± 0.034 kcal/mol | 1.92 ± 0.028 kcal/mol | 1.72 ± 0.064 kcal/mol
SALDVPPDARVYVFRLRYPVPPGVSAADVAARVRAELSERFGPDVEIVVTVTPDPETGEVLVEAVVVEPVSA [r9_657_TrMRF] | 3.57 ± 0.12 kcal/mol | 4.05 ± 0.058 kcal/mol | 3.82 ± 0.16 kcal/mol
SAGGMSITITTNAPKEVLLRFIKDLAEEIGVEVDVEVTVEPLEDGPIVTAHVHIDPKEPEVPLEELFSAGGS [r16_262_TrMRF] | 0.75 ± 0.018 kcal/mol | 0.384 ± 0.074 kcal/mol | 0.642 ± 0.085 kcal/mol
SAWKIWIEFTPGDPGDTYQIRIDPNSPNLEALLKELAQMFKYEVKDAEVEYNPNGSVWVEFKVDELKPPSAG [r14_655_TrROS] | 1.77 ± 0.081 kcal/mol | 2.67 ± 0.056 kcal/mol | 2.37 ± 0.095 kcal/mol

Sequence | folding stability dG unfold [1] | folding stability dG unfold [2] | folding stability dG unfold [3]
SAMKYVELKLTITVPKEKEEEIEKLKKALEKLGAEIVSVEVEYDEETEEVTVTVTIRIENLSEEELKKASAG [r14_956_TrROS_Hall] | 1.97 ± 0.048 kcal/mol | 2.97 ± 0.08 kcal/mol | 2.69 ± 0.086 kcal/mol
SAGGSAGGSAMVVRGEDLTPEALLELLEENPEEVTLETKDHIATVKFNPETGELEITSVDDISAGGSAGGSA [r18_75_TrMRF] | 1.38 ± 0.12 kcal/mol | 1.73 ± 0.099 kcal/mol | 1.6 ± 0.13 kcal/mol
SAGGMKPGETWRIRTPGKTITIEVKDGKITVTVEENGKKKTIVVEAETEEEALEALRSIPGLEIEKVSAGGS [r16_583_TrROS_Hall] | 1.73 ± 0.05 kcal/mol | 1.32 ± 0.13 kcal/mol | 1.61 ± 0.16 kcal/mol
SAGGSAGGSAMKVALVERPDGSPFLLVFDPDRPGVALLRPLDTDEVEVLPSELLKNLKITASAGGSAGGSAG [r3_451_TrMRF] | -0.509 ± 0.17 kcal/mol | 0.68 ± 0.13 kcal/mol | 0.344 ± 0.1 kcal/mol
SAGGAPVPVSVTVEIFKRPDGYIIKVNIPSGETKTFSSLEELEKFLKENPSLKITKRTTVPIEKYYESSAGG [r13_730_JUSTAS] | 1.94 ± 0.047 kcal/mol | 2.83 ± 0.021 kcal/mol | 2.67 ± 0.071 kcal/mol
SAGKKKKFKIVSVEVEVKEVNGKLVIKMKVKDKKTGKTYEITMTLKVVDKKTKKTYTKTLKVTIKLPKSAGG [r19_129_TrROS_Hall] | 3.46 ± 0.15 kcal/mol | 4.44 ± 0.16 kcal/mol | 4.04 ± 0.4 kcal/mol
SAGGSAKTVSIWIPDDLPNMPIEELIKEVMKAFPPGDEIKDIDVEPWPNGGYMYTFTVNGKEVIIWSAGGSA [r15_451_TrROS] | 1.29 ± 0.043 kcal/mol | 1.93 ± 0.1 kcal/mol | 1.78 ± 0.17 kcal/mol
SGSSYLPLEDVKTEWKKNPNSDVYNYTTFLQTPSGEPISVTYDPKTGKITFNLPPGTTWRPGKKSEVKLESA [r9_509_JUSTAS] | 0.124 ± 0.16 kcal/mol | 1.13 ± 0.23 kcal/mol | 0.864 ± 0.16 kcal/mol
SAGGSAGGSAPKEVVVLDLKISPVPDPRYFPAEFTVYIPENGKPFPVTAVFDPEGGEVTIGSAGGSAGGSAG [r3_1_TrMRF] | 2.7 ± 0.071 kcal/mol | 3.23 ± 0.1 kcal/mol | 3.04 ± 0.12 kcal/mol
SAGGSAGGKVRVITVKPGETITVEGLPPGAVLITLPDGSVKEFPAGATIKVPPSAEIVVVEKEDSAGGSAGG [r6_866_TrROS_Hall] | 0.486 ± 0.022 kcal/mol | 0.885 ± 0.04 kcal/mol | 0.778 ± 0.1 kcal/mol
SAPDVGPEERARRLIEEARAEVEAARAAGDPSVPRRVVFDELAVAHPEEAARILEEAARLGIPVEVRPPSAG [r14_908_JUSTAS] | 0.252 ± 0.11 kcal/mol | 0.98 ± 0.044 kcal/mol | 0.748 ± 0.083 kcal/mol
SASNRVTVSSETVREGDKKLLKLTVTITDSSTGRTSTETLTTEDPEKAREELAARPDVSTLTFETLTPGSAG [r14_464_JUSTAS] | 0.303 ± 0.12 kcal/mol | -0.196 ± 0.2 kcal/mol | 0.1 ± 0.19 kcal/mol
SAGGSAGGSAGGGPDATPVTTTYVDLNLTPVSTETDPETGAVTVTYKLPGETITVTLPASAGGSAGGSAGGS [r10_962_JUSTAS] | -0.629 ± 0.13 kcal/mol | 1.11 ± 0.42 kcal/mol | 0.573 ± 0.22 kcal/mol
SAGGMVYRVKVKITFPDGKTYYIPFPNFKSFEEILNVLKKLGFENLENIPIEVIEIEPIPEVPEELLKSAGG [r13_493_TrMRF] | 1.53 ± 0.066 kcal/mol | 3.07 ± 0.11 kcal/mol | 2.74 ± 0.16 kcal/mol
SAGGSAGGSAGGKDVRITVSPNNMRISIWKRDPNDGKWKPIGTIPMPPNDPDKALDQLKSAGGSAGGSAGGS [r10_275_TrROS] | -0.216 ± 0.18 kcal/mol | -1.13 ± 0.91 kcal/mol | -0.446 ± 0.18 kcal/mol
